Where a chain is given by its changes, count along the chain named.
T1: human GIP receptor (human) (UniProt P48546)
T1 sequence (looked up): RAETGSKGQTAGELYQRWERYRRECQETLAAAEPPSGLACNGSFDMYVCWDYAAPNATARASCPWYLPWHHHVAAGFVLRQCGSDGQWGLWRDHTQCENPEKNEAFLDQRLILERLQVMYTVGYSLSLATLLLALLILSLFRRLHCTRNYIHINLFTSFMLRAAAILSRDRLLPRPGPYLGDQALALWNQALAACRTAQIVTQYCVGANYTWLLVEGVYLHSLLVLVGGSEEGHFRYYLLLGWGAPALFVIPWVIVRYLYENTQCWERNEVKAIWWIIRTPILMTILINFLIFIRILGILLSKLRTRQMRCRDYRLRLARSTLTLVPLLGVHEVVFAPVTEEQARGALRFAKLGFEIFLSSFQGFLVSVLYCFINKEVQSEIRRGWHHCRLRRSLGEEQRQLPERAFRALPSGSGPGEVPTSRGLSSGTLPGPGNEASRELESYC

B1: Example 928 (peptide)
chain: YXQGTFTSDXSQXLDKKAQXAFIEYLIEXGPSSGAPPPSGSEE
modifications: acylated lysine γGlu-C18 diacid; non-natural residues; C-terminal amide; synthetic construct; SITE 2: note = 2-Aminoisobutyric Acid; SITE 10: note = 3-(4-Pyridyl)-L-alanine; SITE 13: note = alpha-methyl-leucine; SITE 17: note = Lysine is chemically modified through conjugation of the epsilon-amino group of the Lysine side chain with D-Glutamic acid-(gamma-Glu)-CO-(CH2)16
B2: Example 957 (peptide)
chain: B1 chain with Y25X, X29G
modifications: non-natural residues; Lys acylated C18 diacid; C-terminal amide; synthetic construct; SITE 2: note = 2-Aminoisobutyric Acid; SITE 10: note = 3-(4-Pyridyl)-L-alanine; SITE 13: note = alpha-methyl-leucine; SITE 17: note = Lysine is chemically modified through conjugation of the epsilon-amino group of the Lysine side chain with (gamma-Glu)2-CO-(CH2)16-CO2H; SITE 20:
B3: Example 960 (peptide)
chain: B1 chain with E28A, X29G
modifications: synthetic construct; SITE 2: note = 2-Aminoisobutyric Acid; SITE 10: note = 3-(4-Pyridyl)-L-alanine; SITE 13: note = alpha-methyl-leucine; SITE 17: note = Lysine is chemically modified through conjugation of the epsilon-amino group of the Lysine side chain with (gamma-Glu)2-CO-(CH2)16-CO2H; SITE 20:
B4: Example 964 (peptide)
chain: B1 chain with Q12X, E28A, X29G, P31E
modifications: synthetic construct; SITE 2: note = 2-Aminoisobutyric Acid; SITE 10: note = 3-(4-Pyridyl)-L-alanine; SITE 12: note = L-ornithine; SITE 13: note = alpha-methyl-leucine; SITE 17: note = Lysine is chemically modified through conjugation of the epsilon-amino group of the Lysine side chain with (gamma-Gl)
B5: Example 958 (peptide)
chain: B1 chain with Q12X, Y25X, X29G
modifications: Aib, 4Pal, Orn, αMeL, Me4Pal, acylated K, C-terminal amide; synthetic construct; SITE 2: note = 2-Aminoisobutyric Acid; SITE 10: note = 3-(4-Pyridyl)-L-alanine; SITE 12: note = L-ornithine; SITE 13: note = alpha-methyl-leucine; SITE 17: note = Lysine is chemically modified through conjugation of the epsilon-amino group of the Lysine side chain with (gamma-Gl)
B6: Example 955 (peptide)
chain: B1 chain with Q12X, Y25X, X29G
modifications: Aib, 4Pal, Me4Pal, Orn, alpha-methyl-Leu, lipidated Lys, amide; synthetic construct; SITE 2: note = 2-Aminoisobutyric Acid; SITE 10: note = 3-(4-Pyridyl)-L-alanine; SITE 12: note = L-ornithine; SITE 13: note = alpha-methyl-leucine; SITE 17: note = Lysine is chemically modified through conjugation of the epsilon-amino group of the Lysine side chain with (2-[2-(2-
B7: Example 929 (peptide)
chain: B1 chain
modifications: non-natural residues, γGlu-C18 diacid acyl on K, C-terminal amide; synthetic construct; SITE 2: note = 2-Aminoisobutyric Acid; SITE 10: note = 3-(4-Pyridyl)-L-alanine; SITE 13: note = alpha-methyl-leucine; SITE 17: note = Lysine is chemically modified through conjugation of the epsilon-amino group of the Lysine side chain with (D-Glutamic acid)2-(gamma-Glu)-CO-(CH2)
B8: Example 965 (peptide)
chain: B1 chain with Q12R, E28A, X29G, P31E
modifications: synthetic construct; SITE 2: note = 2-Aminoisobutyric Acid; SITE 10: note = 3-(4-Pyridyl)-L-alanine; SITE 13: note = alpha-methyl-leucine; SITE 17: note = Lysine is chemically modified through conjugation of the epsilon-amino group of the Lysine side chain with (gamma-Glu)2-CO-(CH2)16-CO2H; SITE 20:
B9: Example 962 (peptide)
chain: B1 chain with Q12R, E28A, X29G
modifications: synthetic construct; SITE 2: note = 2-Aminoisobutyric Acid; SITE 10: note = 3-(4-Pyridyl)-L-alanine; SITE 13: note = alpha-methyl-leucine; SITE 17: note = Lysine is chemically modified through conjugation of the epsilon-amino group of the Lysine side chain with (gamma-Glu)2-CO-(CH2)16-CO2H; SITE 20:
B10: Example 956 (peptide)
chain: B1 chain with Q12R, Y25X, X29G
modifications: acylated lysine AEEA-γGlu-C18 diacid; non-natural residues; C-terminal amide; synthetic construct; SITE 2: note = 2-Aminoisobutyric Acid; SITE 10: note = 3-(4-Pyridyl)-L-alanine; SITE 13: note = alpha-methyl-leucine; SITE 17: note = Lysine is chemically modified through conjugation of the epsilon-amino group of the Lysine side chain with (2-[2-(2-Amino-ethoxy)-ethoxy]-acetyl)
B11: Example 930 (peptide)
chain: B1 chain
modifications: acylated Lys γGlu-(e)2-C18 diacid; non-natural residues; C-terminal amide; synthetic construct; SITE 2: note = 2-Aminoisobutyric Acid; SITE 10: note = 3-(4-Pyridyl)-L-alanine; SITE 13: note = alpha-methyl-leucine; SITE 17: note = Lysine is chemically modified through conjugation of the epsilon-amino group of the Lysine side chain with (gamma-Glu)-(D-Glutamic acid)2-CO-(CH2)
B12: Example 931 (peptide)
chain: B1 chain
modifications: acylated Lys e-γGlu-e-C18 diacid; non-natural residues; C-terminal amide; synthetic construct; SITE 2: note = 2-Aminoisobutyric Acid; SITE 10: note = 3-(4-Pyridyl)-L-alanine; SITE 13: note = alpha-methyl-leucine; SITE 17: note = Lysine is chemically modified through conjugation of the epsilon-amino group of the Lysine side chain with D-Glutamic acid-(gamma-Glu)-D-Glutamic
B13: Example 961 (peptide)
chain: B1 chain with Q12X, E28A, X29G
modifications: synthetic construct; SITE 2: note = 2-Aminoisobutyric Acid; SITE 10: note = 3-(4-Pyridyl)-L-alanine; SITE 12: note = L-ornithine; SITE 13: note = alpha-methyl-leucine; SITE 17: note = Lysine is chemically modified through conjugation of the epsilon-amino group of the Lysine side chain with (gamma-Gl)
B14: Example 959 (peptide)
chain: B1 chain with Q12R, Y25X, X29G
modifications: Aib, 4Pal, αMeL, Me4Pal; acylated Lys; C-terminal amide; synthetic construct; SITE 2: note = 2-Aminoisobutyric Acid; SITE 10: note = 3-(4-Pyridyl)-L-alanine; SITE 13: note = alpha-methyl-leucine; SITE 17: note = Lysine is chemically modified through conjugation of the epsilon-amino group of the Lysine side chain with (gamma-Glu)2-CO-(CH2)16-CO2H; SITE 20:
B15: Example 954 (peptide)
chain: B1 chain with Y25X, X29G
modifications: non-natural residues; Lys acylated C18 diacid; C-terminal amide; synthetic construct; SITE 2: note = 2-Aminoisobutyric Acid; SITE 10: note = 3-(4-Pyridyl)-L-alanine; SITE 13: note = alpha-methyl-leucine; SITE 17: note = Lysine is chemically modified through conjugation of the epsilon-amino group of the Lysine side chain with (2-[2-(2-Amino-ethoxy)-ethoxy]-acetyl)
B16: Example 963 (peptide)
chain: B1 chain with E28A, X29G, P31E
modifications: synthetic construct; SITE 2: note = 2-Aminoisobutyric Acid; SITE 10: note = 3-(4-Pyridyl)-L-alanine; SITE 13: note = alpha-methyl-leucine; SITE 17: note = Lysine is chemically modified through conjugation of the epsilon-amino group of the Lysine side chain with (gamma-Glu)2-CO-(CH2)16-CO2H; SITE 20:
B17: Example 918 (peptide)
chain: YXQGTFTSDXSQXLDKKAQXAFIEYLIEXGPSSGAPPPSEG
modifications: non-natural residues; lipidated Lys AEEA-γGlu-C18 diacid; synthetic construct; SITE 2: note = 2-Aminoisobutyric Acid; SITE 10: note = 3-(4-Pyridyl)-L-alanine; SITE 13: note = alpha-methyl-leucine; SITE 17: note = Lysine is chemically modified through conjugation of the epsilon-amino group of the Lysine side chain with (2-[2-(2-Amino-ethoxy)-ethoxy]-acetyl)
B18: Example 948 (peptide)
chain: B17 chain with Y25X, X29G, E40G, G41S
modifications: Aib, 4Pal, Me4Pal, alpha-methyl-Leu, lipidated Lys, amide; synthetic construct; SITE 2: note = 2-Aminoisobutyric Acid; SITE 10: note = 3-(4-Pyridyl)-L-alanine; SITE 13: note = alpha-methyl-leucine; SITE 17: note = Lysine is chemically modified through conjugation of the epsilon-amino group of the Lysine side chain with (2-[2-(2-Amino-ethoxy)-ethoxy]-acetyl)

target: hGLP-1R (Homo sapiens, UniProt P43220); test: cell-based or functional assay
Sequence (P43220 24-463): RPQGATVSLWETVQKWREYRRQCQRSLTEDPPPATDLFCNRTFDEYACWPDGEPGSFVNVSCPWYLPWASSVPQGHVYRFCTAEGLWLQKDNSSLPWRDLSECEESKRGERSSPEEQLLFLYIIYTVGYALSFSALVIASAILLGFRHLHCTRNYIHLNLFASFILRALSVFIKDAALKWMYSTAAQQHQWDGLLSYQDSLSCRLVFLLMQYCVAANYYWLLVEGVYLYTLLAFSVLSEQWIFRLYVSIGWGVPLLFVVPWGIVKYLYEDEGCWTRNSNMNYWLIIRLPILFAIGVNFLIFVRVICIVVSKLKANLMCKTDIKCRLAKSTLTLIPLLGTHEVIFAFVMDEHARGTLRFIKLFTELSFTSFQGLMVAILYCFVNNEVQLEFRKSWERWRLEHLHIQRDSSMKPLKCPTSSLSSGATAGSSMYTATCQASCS

| Binder | cAMP Rel EC50 (1% HSA) [nM] | cAMP Rel EC50, nM (1% HSA) [nM] | Relative cAMP EC50 [nM] |
| --- | --- | --- | --- |
| B1 | 604 |  |  |
| B2 |  | 747 |  |
| B3 |  | 161 | 1.51 |
| B4 |  | 267 | 2.67 |
| B5 |  | 850 |  |
| B6 |  | 1380 |  |
| B7 | 593 |  |  |
| B8 |  | 194 | 1.39 |
| B9 |  | 132 | 1.36 |
| B10 |  | 643 |  |
| B11 | 824 |  |  |
| B12 | 878 |  |  |
| B13 |  | 216 | 2.52 |
| B14 |  | 503 |  |
| B15 |  | 357 |  |
| B16 |  | 215 | 1.77 |
| B17 | 484 |  |  |
| B18 | 304 |  |  |

target: T1, human GIP receptor (human); test: cell-based or functional assay

| Binder | cAMP Rel EC50 (1% HSA) [nM] | cAMP Rel EC50, nM (1% HSA) [nM] | Relative cAMP EC50 [nM] |
| --- | --- | --- | --- |
| B1 | 15.1 |  |  |
| B2 |  | 25 |  |
| B3 |  | 14.1 | 0.124 |
| B4 |  | 21.4 | 0.288 |
| B5 |  | 27.1 |  |
| B6 |  | 42.3 |  |
| B7 | 22.6 |  |  |
| B8 |  | 23.2 | 0.13 |
| B9 |  | 9.71 | 0.0972 |
| B10 |  | 32.1 |  |
| B11 | 19.9 |  |  |
| B12 | 20.8 |  |  |
| B13 |  | 13.6 | 0.167 |
| B14 |  | 24.5 |  |
| B15 |  | 35.3 |  |
| B16 |  | 25.1 | 0.244 |
| B17 | 18 |  |  |
| B18 | 22.9 |  |  |

target: human glucagon receptor (human) (UniProt P47871); test: cell-based or functional assay
Sequence (P47871 26-477): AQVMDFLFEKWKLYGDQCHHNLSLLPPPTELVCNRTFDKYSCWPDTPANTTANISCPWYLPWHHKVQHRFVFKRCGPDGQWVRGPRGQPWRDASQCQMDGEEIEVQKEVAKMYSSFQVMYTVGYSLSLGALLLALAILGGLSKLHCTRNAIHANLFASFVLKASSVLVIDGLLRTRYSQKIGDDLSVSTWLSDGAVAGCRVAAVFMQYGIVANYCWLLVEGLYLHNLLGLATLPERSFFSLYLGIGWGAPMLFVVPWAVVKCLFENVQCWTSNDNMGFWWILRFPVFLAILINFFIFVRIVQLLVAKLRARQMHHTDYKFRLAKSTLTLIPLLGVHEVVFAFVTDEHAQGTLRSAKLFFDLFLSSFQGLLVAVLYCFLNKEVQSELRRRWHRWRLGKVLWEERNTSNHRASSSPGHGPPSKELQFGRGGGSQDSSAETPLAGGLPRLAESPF

| Binder | cAMP Rel EC50 (1% HSA) [nM] | cAMP Rel EC50, nM (1% HSA) [nM] | Relative cAMP EC50 [nM] |
| --- | --- | --- | --- |
| B1 | 1090 |  |  |
| B2 |  | 947 |  |
| B3 |  | 813 | 5.5 |
| B4 |  | 324 | 2.75 |
| B5 |  | 340 |  |
| B6 |  | 366 |  |
| B7 | 2690 |  |  |
| B8 |  | 430 | 3.35 |
| B9 |  | 485 | 3.13 |
| B10 |  | 406 |  |
| B11 | 1700 |  |  |
| B12 | 2300 |  |  |
| B13 |  | 342 | 2.96 |
| B14 |  | 316 |  |
| B15 |  | 450 |  |
| B16 |  | 900 | 5.81 |
| B17 | 590 |  |  |
| B18 | 537 |  |  |
